This note sets out measurements from paper PMC5349899.

Assay [1] deals with biotinylated avi-tagged TGF-β2 (human). Nature of the assay: SPR; biotinylated avi-tagged TGF-β2 or TGF-β3 captured on streptavidin-coated CM5 chip at 50-80 RU; analytes injected as two-fold dilution series in HBS-EP at 100 µL/min (150 s); BIAcore 3000; global fit to a simple 1:1 model. A general note: Surface plasmon resonance follows binding to a sensor surface in real time, without labels.

In assay [2] the target is biotinylated avi-tagged TGF-β3 (human). Described as above.
For assay [3], the target named is TGF-β2 (in the calorimeter cell). Nature of the assay: ITC; ER or RER (50-110 µM) in the syringe, TGF-β2 (5-8 µM) in the cell; 10 mM sodium phosphate pH 7.4, 30 mM CHAPS; 37°C; Microcal PEAQ-ITC. (In ITC the heat of successive injections is recorded.)
For assay [4], the target named is TGF-β1.

What is called Kd is the free concentration of one partner at which half of the binding sites on the other are occupied at equilibrium, for simple one-to-one binding. Lower therefore signals tighter binding. A word on the koff: it is the rate constant with which the complex falls apart. For orientation: kon means a measure of how fast the partners come together. A higher kon goes with fast association. As a reminder, the stoichiometry N is the number of molecules, sites or subunits per partner or assembly.

In assay [1], “betaglycan endoglin domain (BGE) (domain or fragment)” registered a Kd of 30.6 nM, a koff of 0.00466 s⁻¹ and a kon of 152000 M⁻¹ s⁻¹. In assay [2], this substance showed a Kd of 94.6 nM, a koff of 0.0124 s⁻¹ and a kon of 131000 M⁻¹ s⁻¹.

Turning to “ER receptor trap (betaglycan endoglin domain-TβRII; rat BG-human TβRII receptor fusion) (designed binder)”, in assay [3], the equilibrium dissociation constant (Kd) is 215 nM and the stoichiometry N is 1.05 sites. In assay [1], this substance had a Kd of 1.44 nM, a koff of 0.000438 s⁻¹ and a kon of 307000 M⁻¹ s⁻¹. In assay [2], the Kd was 0.0505 nM, the off-rate (koff) worked out at 1.97e-05 s⁻¹ and the kon stood at 391000 M⁻¹ s⁻¹.

Turning to “bivalent TGF-β receptor trap ER (BGE-RII) (from UniProt P37173 23-166)”, in assay [4], the IC50 of inhibition of PAI-1 luciferase reporter activity in Mv1Lu mink lung epithelial cells induced with 20 pM TGF-β1 was found to be 14 pM; the reduction of Smad2 phosphorylation (Western blot) in MCF-10A cells stimulated with 2 pM TGF-β1 in the presence of 0, 0.01, 0.1, 1 and 10 nM ER was 30%.

“RER receptor trap (TβRII-betaglycan endoglin domain-TβRII) (designed binder)”: in assay [3], the Kd was determined as 128 nM and the stoichiometry N came out at 1.1 sites. For the same substance, in assay [1], the koff worked out at 0.000253 s⁻¹ and the kon worked out at 307000 M⁻¹ s⁻¹. In assay [2], this substance had a Kd of 0.0244 nM, a koff of 9.44e-06 s⁻¹ and a kon of 387000 M⁻¹ s⁻¹.
